From IntAct's records for PubMed 20704562

B1: Transmembrane protease serine 6 (Homo sapiens), Q8IU80 (parent)
chain: MLLLFHSKRMPVAEAPQVAGGQGDGGDGEEAEPEGMFKACEDSKRKARGYLRLVPLFVLLALLVLASAGVLLWYFLGYKAEVMVSQVYSGSLRVLNRHFSQDLTRRESSAFRSETAKAQKMLKELITSTRLGTYYNSSSVYSFGEGPLTCFFWFILQIPEHRRLMLSPEVVQALLVEELLSTVNSSAAVPYRAEYEVDPEGLVILEASVKDIAALNSTLGCYRYSYVGQGQVLRLKGPDHLASSCLWHLQGPKDLMLKLRLEWTLAECRDRLAMYDVAGPLEKRLITSVYGCSRQEPVVEVLASGAIMAVVWKKGLHSYYDPFVLSVQPVVFQACEVNLTLDNRLDSQGVLSTPYFPSYYSPQTHCSWHLTVPSLDYGLALWFDAYALRRQKYDLPCTQGQWTIQNRRLCGLRILQPYAERIPVVATAGITINFTSQISLTGPGVRVHYGLYNQSDPCPGEFLCSVNGLCVPACDGVKDCPNGLDERNCVCRATFQCKEDSTCISLPKVCDGQPDCLNGSDEEQCQEGVPCGTFTFQCEDRSCVKKPNPQCDGRPDCRDGSDEEHCDCGLQGPSSRIVGGAVSSEGEWPWQASLQVRGRHICGGALIADRWVITAAHCFQEDSMASTVLWTVFLGKVWQNSRWPGEVSFKVSRLLLHPYHEEDSHDYDVALLQLDHPVVRSAAVRPVCLPARSHFFEPGLHCWITGWGALREGGPISNALQKVDVQLIPQDLCSEVYRYQVTPRMLCAGYRKGKKDACQGDSGGPLVCKALSGRWFLAGLVSWGLGCGRPNYFGVYTRITGVISWIQQVVT
partner: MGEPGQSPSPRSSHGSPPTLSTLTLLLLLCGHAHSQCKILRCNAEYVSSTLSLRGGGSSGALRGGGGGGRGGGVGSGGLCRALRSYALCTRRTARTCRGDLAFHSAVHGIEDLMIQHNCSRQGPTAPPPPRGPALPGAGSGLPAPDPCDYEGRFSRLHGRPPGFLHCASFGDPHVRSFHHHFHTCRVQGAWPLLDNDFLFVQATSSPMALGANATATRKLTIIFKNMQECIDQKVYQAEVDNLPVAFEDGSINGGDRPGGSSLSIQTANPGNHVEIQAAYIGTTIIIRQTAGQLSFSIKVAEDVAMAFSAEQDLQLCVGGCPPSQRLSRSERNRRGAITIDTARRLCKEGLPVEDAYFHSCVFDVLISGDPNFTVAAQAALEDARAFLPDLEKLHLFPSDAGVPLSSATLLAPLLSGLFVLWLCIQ

Variants of: B1
Details: with rgmc_human HJV

| effect of a mutation on the interaction | Variant |
| --- | --- |
| with no effect | Y141C |
